Data: publication PMC12740422

Tests used:
[1] = target: AcrIE9 (Pseudomonas aeruginosa); test: SEC; preparative SEC of AcrIE9 during purification, HiLoad 26/600 Superdex 75 pg; 300 mM NaCl, 5% glycerol, 2 mM DTT, 20 mM HEPES pH 7.0
[2] = target: AcrIE9 (Pseudomonas aeruginosa); test: SEC; analytical SEC of the pooled dimeric species of AcrIE9 alone, Superdex 200 increase 10/300 GL; 150 mM NaCl, 2 mM DTT, 5% glycerol, 20 mM HEPES pH 7.0

AcrIE9 (natural protein) was tested, and the stoichiometry N [1] was 2 and the stoichiometry N [2] was 2.
